# B1: anti-SARS-CoV-2 antibody 496 (antibody, V domains shown)
# VH: QVQLVQSGAEVKKPGASVKVSCKASGYTFTDYYIHWVRQAPGQGLEWMGWINPNSGGTNYAQKFQGRLTMTRDTSISTAYMELSRLRSDDTAVYYCARVYSMFREFIINPYYYYYGLDVWGQGTTVTVSS
# VL: QSALTQPASVSGSPRQSITISCTGTSSDVGSYNLVSWYQQHPGKAPKLMIYEGSKRPSGVSNRFSGSKSGNTASLAISGLQAEDEANYYCCSYAGSSTLVFGGGTKLTVL
# B2: anti-SARS-CoV-2 antibody 477 (antibody, V domains shown)
# VH: QVQLVESGGGVVQPGRSLRLSCAASGITFSSYAMHWVRQAPGKGLEWVAVISYDGSDKYHADSVKGRFAISRDNSKNTLYLQMNSLRAEDTAVYYCAKDKGIAVAGTGWIRPDPEYYFDYWGQGTLVTVSS
# VL: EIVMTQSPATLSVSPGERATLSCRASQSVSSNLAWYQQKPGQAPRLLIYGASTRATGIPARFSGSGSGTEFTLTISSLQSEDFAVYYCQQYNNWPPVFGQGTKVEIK
# B3: anti-SARS-CoV-2 antibody 475 (antibody, V domains shown)
# VH: QVQLVESGGGVVQPGRSLRLSCAASGFTFSSYAMHWVRQAPGKGLEWVTFISHEGSNKYYADSVKGRFTISRDNSKNTLYLQMNSLRAEDTAVYYCARTFEYSSSSATGDFDYWGQGTLVTVSS
# VL: QSVLTQPPSVSGAPGQRVTISCTGSSSNIGAGYDVHWYQQLPGTAPKLLIYGNSNRPSGVPDRFSGSKSGTSASLAITGLQAEDEADYYCQSYDSSLSGVVFGGGTKLTVL
# B4: anti-SARS-CoV-2 antibody 497 (antibody, V domains shown)
# VH: QVQLQESGPGLVKPSQTLSLTCTVSGGSINSFGYYWSWIRQHPGKGLEWIGYIYYSGSTDYNPSLNSRVTISLDTSKNQFLLKLTSVTAADTAVYYCAKLTDYYDSSGYSFDYWGQGTLVTVSS
# VL: DIQMTQSPSSVSASVGDRVTITCRASQDISRWLAWYQQKPGKAPKLLIYAASSLQSGVPSRFSGRGSGTELTLTISSLQPEDFATYFCQQAYSFPFTFGGGTKVEIK
# B5: anti-SARS-CoV-2 antibody 471 (antibody, V domains shown)
# VH: QVQLVESGGGVVQPGRSLRLSCAASGFTFSSYAMHWVRQAPGKGLEWVAVISYDGSNKYYADSVKGRFTISRDNSKNTLYLQMNSLRAEDTAVYYCAKQYSPYCSGGSCYSGASDYWGQGTLVTVSS
# VL: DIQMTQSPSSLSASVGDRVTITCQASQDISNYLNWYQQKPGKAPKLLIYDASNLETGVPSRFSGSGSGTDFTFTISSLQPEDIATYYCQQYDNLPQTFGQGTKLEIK
# B6: anti-SARS-CoV-2 antibody 476 (antibody, V domains shown)
# VH: QVQLVQSGSELKKPGASVKVSCKASGYTFTSYAMNWVRQAPGQGLEWMGWINTNTGNPTYAQGFTGRFVFSLDTSVSTAYLQISSLKAEDTGVYYCARDHELPNSSSWFGHFEYWGQGTLVTVSS
# VL: SYELTQPPSVSVSPGQTARITCSGDALPKQYAYWYQQKAGQAPVLVIYKDSERRSGIPERFSGSSSGTTVTLTISGVQAEDEADYYCQSADSSGTSVVFGGGTKLTVL
# B7: anti-SARS-CoV-2 antibody 492 (antibody, V domains shown)
# VH: QVQLVESGGGVVQPGRSLRLSCAASGFTFSSYGMHWVRQAPGKGLEWVAVISYDGSNKYYADSVKGRFTISRDNSKNTLYLQMNSLRAEDTAVYYCAKDGILWWWWGYFDYWGQGTLVTVSS
# VL: QSVLTQPPSVSGAPGQRVTISCTGSSSNIGAGFDVHWYQQLPGTAPKLLIYGNSNRPSGVPDRFSGSKSGTSASLAITGLQAEDEADYYCQSYDSSLSVVFGGGTKLTVL
# B8: anti-SARS-CoV-2 antibody 480 (antibody, V domains shown)
# VH: QVQLVESGGGVVQPGRSLRLSCAASGFTFSSYAMHWVRQAPGKGLEWVAVISYDGNNKYYADSVKGRFTISRDNSKNTLYLQMNSLRAEDTAVYYCVRTNSGSYYAAFDYWGQGTLVTVSS
# VL: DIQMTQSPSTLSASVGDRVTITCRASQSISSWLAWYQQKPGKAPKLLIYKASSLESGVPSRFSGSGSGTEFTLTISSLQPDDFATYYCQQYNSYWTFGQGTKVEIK
# B9: antibody 409 (antibody, V domains shown)
# VH: QVTLRESGPALVKPTQTLTLTCTFSGFSLSTSGMCVSWIRQPPGKALEWLALIDWDDDKYYSTSLKTRLTISKDTSKNQVVLTMTNMDPVDTATYYCARTTYYYVSGRRAEFDPWGQGTLVTVSS
# VL: NFMLTQPHSVSESPGKTVTISCTGSSGSIASNYVQWYQQRPGSAPTTVIYEDNQRPSGVPDRFSGSIDSSSNSASLTISGLKTEDEADYYCQSYDSSNQGVFGGGTKLTVL
# B10: antibody 421 (antibody, V domains shown)
# VH: QVQLVESGGGVVQPGRSLRLSCAASGFTFSTYAMHWVRQAPGKGLEWVAVISYDGSNKYYADSVKGRFTISRDNSKNTLYLQMNSLRAEDTAVYYCARGYGSGSYYPLYLYWGQGTLVTVSS
# VL: not shown
# B11: antibody 422 (antibody, V domains shown)
# VH: QVQLVQSGSELKKPGASVKVSCKASGYTFTSYAMNWVRQAPGQGLEWMGWINTNTGNPTYAQGFTGRFVFSLDTSVSTTYLQISSLKAEDTAVYYCARVIGVVTYYYYGMDVWGQGTTVTVSS
# VL: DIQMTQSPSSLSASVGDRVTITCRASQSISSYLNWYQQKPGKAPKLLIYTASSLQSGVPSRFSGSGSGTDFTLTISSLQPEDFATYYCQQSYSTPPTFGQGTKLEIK
# B12: antibody 423 (antibody, V domains shown)
# VH: EVQLVESGGGLIQPGGSLRISCAASGFTVRNNHMSWVRQAPGKGLEWVSVFYRGGTTYYADSVKGRFTISRDDSKNTVDLQMNSLRGEDTAVYYCARGLSVAASGYFDCWGQGTLVTVSS
# VL: DIQMTQSPSSVSASVGDTVTITCRANQGISSWLAWYQQVPGKAPELLIYATSTLQSGVPSRFSGSGSGTDFTLTISSLQPEDFATYYCQQANSFPFTFGPGTKVDIK
# B13: antibody 431 (antibody, V domains shown)
# VH: QVQLVESGGGVVQPGRSLRLSCAASGFTFSSYAMHWVRQAPGKGLEWLAVISYDGSNKYYADSVKGRFTISRDNSKNTLYLQMNSLRAEDTAVYYCARSFRGGYYYGMDVWGQGTTVTVSS
# VL: DIQLTQSPSFLSASVGDRVTITCRASQGISSYLAWYQQKPGKAPKLLIYAASTLQSGVPSRFSGSGSGTEFTLTISSLQPEDFATYYCQQLNSYPLFTFGPGTKVDIK
# B14: antibody 395 (antibody, V domains shown)
# VH: QVQLVQSGSELKKPGASVKLSCQASGYTFSNHAMNWVRQAPGQGLEWMGWINTNTGNPTYAQGFTGRFVFSLDTSVGTAYLHISSLKAEDTAFYYCARASARPGVATNLDFWGQGTLVVVSS
# VL: DIQMTQSPSSLSASVGDRVTITCRTSQNIDNYLNWYQQKPGKAPNLLIYAASRLHSGVPSRFSGSGSGTDFTLIISSLQPEDLATYYCQQSYSNPLTFGPGTKVDIR
# B15: antibody 420 (antibody, V domains shown)
# VH: QVQLVESGGGVVQPGRSLRLSCAASGFTFSSYGMHWVRQAPGKGLEWVAVIWYDGSNKYYADSVKGRFTISRDNSKNTLYLQMNSLRAEDTAVYYCAKDGGDYGDVNFDYWGQGTLVTVSS
# VL: SYELTQPPSVSVSPGQTARITCSGDALPKQYAYWYQQKPGQAPVLVIYKDSERPSGIPERFSGSSSGTTVTLTISGVQAEDEADYYCQSAGSSGNYKVFGGGTKLTVL
# B16: antibody 385 (antibody, V domains shown)
# VH: QVQLVESGGGVVQPGRSLRLSCAASGFTFSSYAIHWVRQAPGKGLEWVAVISYDGSNKYYADSVKGRFTISRDNSKNTLYLQMNSLRAEDTAVYYCARPRSGSYWGAFDIWGQGTMVTVSS
# VL: QSVLTQPPSVSGAPGQRVTISCTGSSSNIGARYDVHWYQQLPGTAPKLLIYGNSNRPSGVPDRFSGSKSGTSASLAITGLQAEDEADYYCQSYDSSLRGVFGGGTKLTVL
# B17: antibody 405 (antibody, V domains shown)
# VH: not shown
# VL: QSALTQPRSVSGSPGQSVTISCTGTSSDVGGYNYVSWYQQHPGKAPKLMIYDVSKRPSGVPDRFSGSKSGNTASLTISGLQAEDEADYYCCSYAGSYNVVFGGGTKLTVL
# Molecular target: SARS-CoV-2 spike (S) protein, full length, wild type (SARS-CoV-2, UniProt P0DTC2 14-1208)
row,Binder,median fluorescence fold over isotype
1,B1,1090 fold over isotype
2,B2,847 fold over isotype
3,B3,683 fold over isotype
4,B4,630 fold over isotype
5,B5,770 fold over isotype
6,B6,902 fold over isotype
7,B7,664 fold over isotype
8,B8,690 fold over isotype

# Molecular target: SARS-CoV-2 full length spike protein, wild type, expressed on the surface of transiently transfected CHO cells (SARS-CoV-2, UniProt P0DTC2 14-1273)
row,Binder,median fluorescence fold over isotype control
1,B9,13.8 fold over isotype
2,B10,9.23 fold over isotype
3,B11,19.6 fold over isotype
4,B12,14.6 fold over isotype
5,B13,10.7 fold over isotype
6,B14,7.8 fold over isotype
7,B15,1.99 fold over isotype
8,B16,10.5 fold over isotype
9,B17,9.7 fold over isotype
